The values that follow come from US20150004637A1, “SYSTEMS AND METHODS FOR IMAGING AT HIGH SPATIAL AND/OR TEMPORAL PRECISION” (President and Fellows of Harvard College, priority 2011, published 2015).

Series [1] deals with HEK 293 cells. Nature of the series: Arch fluorescence as a function of membrane potential, whole-cell voltage clamp. It counts as cell-based. The following applies: for Approx ΔF/F per 100 mV: Table 2, described herein. Here is the method: Fluorescence of Arch in HEK 293 cells supplemented with about 5 μM all-trans retinal (See Methods 4) was readily imaged in an inverted fluorescence microscope with red illumination (λ=640 nm, about 20 mW, and about I=540 W/cm^2), a high numerical aperture objective (NA), a Cy5 filter set, and an EMCCD camera (See Methods 5, FIG. 3A). […] Cells not expressing Arch were not fluorescent.
(4) HEK cell culture. HEK-293 cells were grown at 37° C., 5% CO2, in DMEM supplemented with 10% FBS and penicillin-streptomycin. Plasmids were transfected using Lipofectamine and PLUS reagent (Invitrogen) following the manufacturer's instructions, and assayed between 48-72 hours later. The day before recording, cells were re-plated onto glass-bottom dishes (MatTek) at a density of ˜5000 cells/cm^2.
The concentration of endogenous retinal in the HEK cells was not known, so the cells were supplemented with retinal by diluting stock retinal solutions (40 mM, DMSO) in growth medium to a final concentration of 5 micromolar, and then placing the cells back in the incubator for 1-3 hours. All imaging and electrophysiology were performed in Tyrode buffer (containing, in mM: 125 NaCl, 2 KCl, 3 CaCl2, 1 MgCl2, 10 HEPES, 30 glucose pH 7.3, and adjusted to 305-310 mOsm with sucrose). Only HEK cells having reversal potentials between −10 and −40 mV were included in the analysis.
(5) Microscopy. Simultaneous fluorescence and whole-cell patch clamp recordings were acquired on a home-built, inverted epifluorescence microscope, operated at room temperature. One goal was to collect fluorescence with high efficiency, while also achieving a large enough field of view to image an entire neuron and its processes. Typically, microscope objectives offer a tradeoff between magnification and light-gathering capacity (numerical aperture). Additionally, the ability to change magnification while maintaining a patch on a single cell was important in some cases. Typically the vibrations associated with switching objectives—particularly water or oil immersion objectives—are incompatible with simultaneous patch clamp. In addition, in some cases, the capability to split the field of view into two wavelength bands, and to change magnification without changing the registration of the two halves of the image was important.
(6) Electrophysiology. Filamented glass micropipettes (WPI) were pulled to a tip resistance of 3-10 megohm fire polished, and filled with internal solution (containing, in mM: 125 potassium gluconate, 8 NaCl, 0.6 MgCl2, 0.1 CaCl2, 1 EGTA, 10 HEPES, 4 Mg-ATP, 0.4 Na-GTP, pH 7.3; adjusted to 295 mOsm with sucrose). The micropipettes were positioned with a Burleigh PCS 5000 micromanipulator. Whole-cell, voltage clamp recordings were acquired using an AxoPatch 200B amplifier (Molecular Devices), filtered at 2 kHz with the internal Bessel filter, and digitized with a National Instruments PCIE-6323 acquisition board at 10 kHz. […]
(7) Ramp and step-response of Arch WT and D95N. To measure fluorescence as a function of membrane potential, a triangle wave was applied, with amplitude from −150 mV to +150 mV and period 12 s, with video recording at 100 ms per frame. A pixel weight matrix was calculated according to Eq. S2 (below) and applied to the movie images to generate a fluorescence number for each frame. These fluorescence values were divided by their minimum value (at V=−150 mV). […] Background subtraction from the raw fluorescence would have yielded considerably larger values of delta-F/F.

The nature of series [2]: Spectroscopic characterization of Arch WT and D95N (absorption, emission, extinction, quantum yield). The note with it: for λmax em: Excitation at λ=532 nm; for ε633: assuming same peak extinction coefficient as Bacteriorhodopsin, 63,000 M^−1 cm^−1; for QY (fluorescence quantum yield): comparison to Alexa 647, excitation at λ=633 nm; for λmax abs: neutral pH. It counts as physicochemical. Here is the method: Arch and its D95N mutant were expressed in E. coli. Briefly, E. coli (strain BL21, pet28b plasmid) was grown in 1 L of LB with 100 micrograms/mL kanamycin, to an O.D 600 of 0.4 at 37° C. All-trans retinal (5 micromolar) and inducer (IPTG 0.5 mM) were added and cells were grown for an additional 3.5 hours in the dark. Cells were harvested by centrifugation and resuspended in 50 mM Tris, 2 mM MgCl2 at pH 7.3 and lysed with a tip sonicator for 5 minutes. The lysate was centrifuged and the pellet was resuspended in PBS supplemented with 1.5% dodecyl maltoside (DM). The mixture was homogenized with a glass/Teflon Potter Elvehjem homogenizer and centrifuged again. The solubilized protein in the supernatant was used for experiments.
(2) Spectroscopic characterization of Arch WT and D95N. The absorption spectra of fractionated E. coli membranes containing Arch WT and D95N were determined using an Ocean Optics USB4000 spectrometer with a DT-MINI-2-GS light source (FIG. 8). The peak extinction coefficients of microbial rhodopsins vary across rhodopsin types from 48,000 to 63,000 M^−1 cm^−1. Due to the high homology between Arch and bacteriorhodopsin (BR), the BR extinction coefficient, 63,000 M^−1 cm^−1, was used for Arch. […] For Arch WT, 633 nm was in the tail of the absorption while for Arch D95N 633 nm lay halfway down the shoulder. The relative extinction coefficients of Arch WT and D95N at 633 nm was independent of the choice to use BR as the reference for the peak extinction coefficient. Absorption spectra for Arch WT and D95N were measured as a function of pH between pH 6 and 11.
The fluorescence emission spectra of Arch WT and D95N were determined using illumination with a 100 mW, 532 nm laser (Dragon Lasers, 532GLM100) or a 25 mW, 633 nm HeNe laser (Spectra-Physics) (FIG. 8). Scattered laser light was blocked with a 532 nm Raman notch filter (Omega Optical, XR03) or a 710/100 emission filter (Chroma), and fluorescence was collected perpendicular to the illumination with a 1000 micron fiber, which passed the light to an Ocean Optics QE65000 spectrometer. Spectra were integrated for 2 seconds. Arch WT and D95N both had emission maxima at 687 nm.
The fluorescence quantum yields of Arch WT and D95N were determined by comparing the integrated emission intensity to emission of a sample of the dye Alexa 647. Briefly, the concentrations of micromolar solutions of dye and protein were determined using a visible absorption spectrum. The extinction coefficients of 270,000 M^−1cm^−1 for Alexa 647 and 63,000 M^−1 cm^−1 for Arch WT and D95N were used, assuming that these microbial rhodopsins have the same extinction coefficient as bacteriorhodopsin. […] The fluorescence emission spectra of dye and protein samples were measured with 633 nm excitation. The quantum yield was then determined by the formula
where Fl is the integrated fluorescence from 660 to 760 nm, epsilon (∈) is the extinction coefficient at 633 nm and c is the concentration.

B1: Archaerhodopsin 3 (protein)
chain: MDPIALQAGYDLLGDGRPETLWLGIGTLLMLIGTFYFLVRGWGVTDKDAREYYAVTILVPGIASAAYLSMFFGIGLTEVTVGGEMLDIYYARYADWLFTTPLLLLDLALLAKVDRVTIGTLVGVDALMIVTGLIGALSHTAIARYSWWLFSTICMIVVLYFLATSLRSAAKERGPEVASTFNTLTALVLVLWTAYPILWIIGTEGAGVVGLGIETLLFMVLDVTAKVGFGFILLRSRAILGDTEAPEPSAGADVSAAD
modifications: Halorubrum sodomense
notes: Microbial rhodopsin from Halorubrum sodomense, light-driven proton pump used as fluorescent voltage indicator; experiments used an Arch-eGFP fusion
As to B1, the “Approx ΔF/F per 100 mV” value in series [1] is listed as 66%. The photobleaching entry in series [1] (continuous 10-minute exposure, 640 nm, about 540 W/cm^2, HEK 293 cells) is recorded as “about 17%”. In series [2], the λmax em stood at 687 nm, the ε633 is recorded as 6,300 M^−1 cm^−1, the “QY (fluorescence quantum yield)” value is 9 × 10^−4 and the λmax abs was 558 nm. In addition, in series [2] (listed as Arch), the λmax em result is recorded as “≈ 687 nm” and the “QY (fluorescence quantum yield)” value was “about 9×10^−4”.

B2: Arch D95N: Archaerhodopsin 3 with aspartic acid 95 mutated to asparagine; non-pumping voltage indicator (protein, UniProt P96787 7-258, looked up, variant D95N)
Archaerhodopsin-3: QAGYDLLGDGRPETLWLGIGTLLMLIGTFYFLVRGWGVTDKDAREYYAVTILVPGIASAAYLSMFFGIGLTEVTVGGEMLDIYYARYANWLFTTPLLLLDLALLAKVDRVTIGTLVGVDALMIVTGLIGALSHTAIARYSWWLFSTICMIVVLYFLATSLRSAAKERGPEVASTFNTLTALVLVLWTAYPILWIIGTEGAGVVGLGIETLLFMVLDVTAKVGFGFILLRSRAILGDTEAPEPSAGADVSAAD
For the molecule B2, in series [1], the “greater sensitivity than wild-type” value turned out to be 50% and the “Approx ΔF/F per 100 mV” value worked out at 100%. Also, the “increase in fluorescence between −150 mV and +150 mV” value in series [1] (whole-cell voltage clamp, no background subtraction) was “about 3 fold”. In series [2], the λmax em is reported as 687 nm, the ε633 was 37,500 M^−1 cm^−1, the “QY (fluorescence quantum yield)” value was 4 × 10^−4 and the λmax abs worked out at 585 nm. Besides, in series [2] (listed as Arch^D95N), the λmax abs entry is recorded as “about 585 nm”. Also, in series [2] (listed as D95N), the λmax abs came to 585 nm.
